{"source": "paper PMC10928986", "about": "“ARTC1-mediated VAPB ADP-ribosylation regulates calcium homeostasis” (Journal of Molecular Cell Biology, 2023)", "molecules": {"B1": {"name": "hARTC5 (GST-ARTC5 (N23–C291)) (Homo sapiens) (protein)", "chain": "VPILPLGLAPDTFDDTYVGCAEEMEEKAAPLLKEEMAHHALLRESWEAAQETWEDKRRGLTLPPGFKAQNGIAIMVYTNSSNTLYWELNQAVRTGGGSRELYMRHFPFKALHFYLIRALQLLRGSGGCSRGPGEVVFRGVGSLRFEPKRLGDSVRLGQFASSSLDKAVAHRFGNATLFSLTTCFGAPIQAFSVFPKEREVLIPPHEVFLVTRFSQDGAQSLVTLWSYNQTCSHFNCAYLGGEKRRGCVSAPGALGTGDLHMTKRHLQQP"}, "B2": {"name": "GST-hARTC1 (N23–C295) (domain or fragment, human, UniProt P52961 23-295, looked up)", "chain": "QSHPITRRDLFSQEIQLDMALASFDDQYAGCAAAMTAALPDLNHTEFQANQVYADSWTLASSQWQERQARWPEWSLSPTRPSPPPLGFRDEHGVALLAYTANSPLHKEFNAAVREAGRSRAHYLHHFSFKTLHFLLTEALQLLGSGQRPPRCHQVFRGVHGLRFRPAGPRATVRLGGFASASLKHVAAQQFGEDTFFGIWTCLGAPIKGYSFFPGEEEVLIPPFETFQVINASRLAQGPARIYLRALGKHSTYNCEYIKDKKCKSGPCHLDNS", "notes": "human ARTC1 residues 23-295, printed as N23–C295 (N and C read as the N- and C-terminal limits), in pGEX-4T-1; also called GST-ARTC1 (N23–C295); source: E. coli BL21 (Codon Plus), purified (Glutathione Sepharose 4B); not shown: GST, N-terminal, kept"}}, "key": {"[1]": {"molecular_target": "T1, hARTC1 in the presence of hARTC3 (hARTC1–hARTC3 heterodimer) (Homo sapiens, UniProt P52961)", "T1 construct": "gene ART1; GST-hARTC1 (N23-C295) with His-hARTC3 (N27-C362), both from E. coli; heterodimer by size exclusion; with Ecto-ADP-ribosyltransferase 3", "T1 sequence (P52961 23-295)": "B2 chain", "T1 sequence (Q13508 27-362 partner)": "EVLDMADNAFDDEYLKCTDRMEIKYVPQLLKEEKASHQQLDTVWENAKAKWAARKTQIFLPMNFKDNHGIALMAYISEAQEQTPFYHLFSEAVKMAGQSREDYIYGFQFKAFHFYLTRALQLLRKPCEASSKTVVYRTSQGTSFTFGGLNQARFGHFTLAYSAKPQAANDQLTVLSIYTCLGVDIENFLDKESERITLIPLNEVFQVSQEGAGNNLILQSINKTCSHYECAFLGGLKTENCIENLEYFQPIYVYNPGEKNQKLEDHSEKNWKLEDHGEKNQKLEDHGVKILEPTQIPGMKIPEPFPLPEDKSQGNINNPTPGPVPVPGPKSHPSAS", "test": "etheno-NAD+ fluorescence kinetics", "format": "biochemical", "settings": "20 mM Tris-HCl pH 8.0, 37°C; hARTC1 with hARTC3 added"}, "[2]": {"substrate": "NC(=O)c1ccc[n+]([C@@H]2O[C@H](COP(=O)(O)OP(=O)(O)OC[C@H]3O[C@@H](n4cnc5c4ncn4ccnc54)[C@H](O)[C@@H]3O)[C@@H](O)[C@H]2O)c1", "test": "etheno-NAD+ NAD+ hydrolase fluorescence assay, Lineweaver-Burk", "format": "biochemical, Homo sapiens", "settings": "20 mM Tris-HCl pH 8.0, 37°C, 60 min, etheno-NAD+ 0-10 μM, enzyme 10 μg/ml"}, "His-hARTC3 (N27–C362)": {"molecular_target": "T2, His-hARTC3 (N27–C362) (human, UniProt Q13508 27-362)", "T2 construct": "human ARTC3 residues 27-362, printed as N27–C362 (N and C read as the N- and C-terminal limits), in pET-15b; also called His-ARTC3 (N27–C362); source: E. coli BL21 (Codon Plus), purified (Ni-chelating Sepharose); not shown: His tag, N-terminal, kept", "T2 sequence (looked up)": "T1 sequence (Q13508 27-362 partner)", "test": "pull-down; GST-hARTC1 (N23–C295) and His-hARTC3 (N27–C362) purified from E. coli, incubated with Glutathione Sepharose 4B and Ni-chelating Sepharose, 4°C, 2 h; washes in NETN 100; blots with anti-His and anti-GST", "settings": "both partners purified"}}}
{"molecule": "NC(=O)c1ccc[n+]([C@@H]2O[C@H](COP(=O)(O)OP(=O)(O)OC[C@H]3O[C@@H](n4cnc5c4ncn4ccnc54)[C@H](O)[C@@H]3O)[C@@H](O)[C@H]2O)c1", "note": "[etheno-NAD^+]", "values": [{"measurement": "etheno-NAD+ fluorescence kinetics", "setting": "[1]", "result": "Enzymatic kinetics for etheno-NAD^+ of hARTC1 in the presence (green) or absence (red)"}]}
{"molecule": "B1", "values": [{"measurement": "Km", "setting": "[2]", "result": "56.78 ± 11.90", "unit": "µM"}]}
{"molecule": "B2", "values": [{"measurement": "binding result", "setting": "His-hARTC3 (N27–C362)", "result": "binds"}, {"measurement": "Km", "setting": "[2]", "result": "11.59 ± 1.57", "unit": "µM"}]}
